The labels stand for the following.
B1: Type IV methyl-directed restriction enzyme EcoKMcrB subunit (Escherichia coli (strain K12)), P15005 (parent)
chain: MESIQPWIEKFIKQAQQQRSQSTKDYPTSYRNLRVKLSFGYGNFTSIPWFAFLGEGQEASNGIYPVILYYKDFDELVLAYGISDTNEPHAQWQFSSDIPKTIAEYFQATSGVYPKKYGQSYYACSQKVSQGIDYTRFASMLDNIINDYKLIFNSGKSVIPPMSKTESYCLEDALNDLFIPETTIETILKRLTIKKNIILQGPPGVGKTFVARRLAYLLTGEKAPQRVNMVQFHQSYSYEDFIQGYRPNGVGFRRKDGIFYNFCQQAKEQPEKKYIFIIDEINRANLSKVFGEVMMLMEHDKRGENWSVPLTYSENDEERFYVPENVYIIGLMNTADRSLAVVDYALRRRFSFIDIEPGFDTPQFRNFLLNKKAEPSFVESLCQKMNELNQEISKEATILGKGFRIGHSYFCCGLEDGTSPDTQWLNEIVMTDIAPLLEEYFFDDPYKQQKWTNKLLGDS
partner: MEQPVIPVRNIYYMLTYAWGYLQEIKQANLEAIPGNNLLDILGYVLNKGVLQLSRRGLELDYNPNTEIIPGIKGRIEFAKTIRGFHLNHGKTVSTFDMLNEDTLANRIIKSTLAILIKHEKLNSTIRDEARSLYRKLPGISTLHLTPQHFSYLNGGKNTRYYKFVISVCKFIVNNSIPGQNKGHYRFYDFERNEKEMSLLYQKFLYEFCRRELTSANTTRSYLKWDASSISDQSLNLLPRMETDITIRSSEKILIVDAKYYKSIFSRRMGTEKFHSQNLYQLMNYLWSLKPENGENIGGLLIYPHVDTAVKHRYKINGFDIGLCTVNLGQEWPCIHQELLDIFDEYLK

Variants of B1 are the subject of this assay. Conditions: with mcrc_ecoli mcrC.
Turning to MESIQPWIEKFIKQAQQQRSQSTKDYPTSYRNLRVKLSFGYGNFTSIPWFAFLGEGQEASNGIYPVILYYKDFDELVLAYGISDTNEPHAQWQFSSDIPKTIAEYFQATSGVYPKKYGQSYYACSQKVSQGIDYTRFASMLDNIINDYKLIFNSGKSVIPPMSKTESYCLEDALNDLFIPETTIETILKRLTIKKNIILQGPPGVGKTFVARRLAYLLTGEKAPQRVNMVQFHQSYSYEDFIQGYRPNGVGFRRKDGIFYNFCQQAKEQPEKKYIFIIDEINRANLSKVFGEVMMLMEHDKRGENWSVPLTYSENDEERFYVPENVYIIGLMNTADRSLAVVDYALRRAFSFIDIEPGFDTPQFRNFLLNKKAEPSFVESLCQKMNELNQEISKEATILGKGFRIGHSYFCCGLEDGTSPDTQWLNEIVMTDIAPLLEEYFFDDPYKQQKWTNKLLGDS [R349A], the “effect of a mutation on the interaction” value is reported as “disrupting interaction strength”.

As for MESIQPWIEKFIKQAQQQRSQSTKDYPTSYRNLRVKLSFGYGNFTSIPWFAFLGEGQEASNGIYPVILYYKDFDELVLAYGISDTNEPHAQWQFSSDIPKTIAEYFQATSGVYPKKYGQSYYACSQKVSQGIDYTRFASMLDNIINDYKLIFNSGKSVIPPMSKTESYCLEDALNDLFIPETTIETILKRLTIKKNIILQGPPGVGKTFVARRLAYLLTGEKAPQRVNMVQFHQSYSYEDFIQGYRPNGVGFRRKDGIFYNFCQQAKEQPEKKYIFIIDEINRANLSKVFGEVMMLMEHDKRGENWSVPLTYSENDEERFYVPENVYIIGLMNTADRSLAVVDYALRARFSFIDIEPGFDTPQFRNFLLNKKAEPSFVESLCQKMNELNQEISKEATILGKGFRIGHSYFCCGLEDGTSPDTQWLNEIVMTDIAPLLEEYFFDDPYKQQKWTNKLLGDS [R348A], the “effect of a mutation on the interaction” value is on record as “disrupting interaction strength”. The value for MESIQPWIEKFIKQAQQQRSQSTKDYPTSYRNLRVKLSFGYGNFTSIPWFAFLGEGQEASNGIYPVILYYKDFDELVLAYGISDTNEPHAQWQFSSDIPKTIAEYFQATSGVYPKKYGQSYYACSQKVSQGIDYTRFASMLDNIINDYKLIFNSGKSVIPPMSKTESYCLEDALNDLFIPETTIETILKRLTIKKNIILQGPPGVGKTFVARRLAYLLTGEKAPQRVNMVQFHQSYSYEDFIQGYRPNGVGFRRKDGIFYNFCQQAKEQPEKKYIFIIDEINRANLSKVFGEVMMLMAHDKRGENWSVPLTYSENDEERFYVPENVYIIGLMNTADRSLAVVDYALRRRFSFIDIEPGFDTPQFRNFLLNKKAEPSFVESLCQKMNELNQEISKEATILGKGFRIGHSYFCCGLEDGTSPDTQWLNEIVMTDIAPLLEEYFFDDPYKQQKWTNKLLGDS [E298A] was “with no effect”.

Source of the values: IntAct's records for PubMed 31296862.
